Data on five molecules can be found in PMC6351565.

T1: endogenous 14-3-3 (all isoforms included), P27348
T1 chain: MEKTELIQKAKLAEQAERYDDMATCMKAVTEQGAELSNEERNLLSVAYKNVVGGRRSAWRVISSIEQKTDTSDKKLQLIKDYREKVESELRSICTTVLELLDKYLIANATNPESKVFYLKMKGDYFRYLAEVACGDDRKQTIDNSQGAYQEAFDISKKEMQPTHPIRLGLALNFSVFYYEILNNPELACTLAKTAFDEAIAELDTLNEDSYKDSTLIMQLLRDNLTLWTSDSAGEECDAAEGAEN

B1: IRSp53-FLAG (wild type), natively phosphorylated, Q9UQB8-4 S452A; S453A; S454A; T455A (protein)
chain: MSLSRSEEMHRLTENVYKTIMEQFNPSLRNFIAMGKNYEKALAGVTYAAKGYFDALVKMGELASESQGSKELGDVLFQMAEVHRQIQNQLEEMLKSFHNELLTQLEQKVELDSRYLSAALKKYQTEQRSKGDALDKCQAELKKLRKKSQGSKNPQKYSDKELQYIDAISNKQGELENYVSDGYKTALTEERRRFCFLVEKQCAVAKNSAAYHSKGKELLAQKLPLWQQACADPSKIPERAVQLMQQVASNGATLPSALSASKSNLVISDPIPGAKPLPVPPELAPFVGRMSAQESTPIMNGVTGPDGEDYSPWADRKAAQPKSLSPPQSQSKLSDSYSNTLPVRKSVTPKNSYATTENKTLPRSSSMAAGLERNGRMRVKAIFSHAAGDNSTLLSFKEGDLITLLVPEARDGWHYGESEKTKMRGWFPFSYTRVLDSDGSDRLHMSLQQGKAAAAGNLLDKDDLAIPPPDYGAASRAFPAQTASGFKQRPYSVAVPAFSQGLDDYGARSMSSGSGTLVSTV
B2: IRSp53-FLAG (wild type), natively phosphorylated, Q9UQB8-4 S366A (protein)
chain: MSLSRSEEMHRLTENVYKTIMEQFNPSLRNFIAMGKNYEKALAGVTYAAKGYFDALVKMGELASESQGSKELGDVLFQMAEVHRQIQNQLEEMLKSFHNELLTQLEQKVELDSRYLSAALKKYQTEQRSKGDALDKCQAELKKLRKKSQGSKNPQKYSDKELQYIDAISNKQGELENYVSDGYKTALTEERRRFCFLVEKQCAVAKNSAAYHSKGKELLAQKLPLWQQACADPSKIPERAVQLMQQVASNGATLPSALSASKSNLVISDPIPGAKPLPVPPELAPFVGRMSAQESTPIMNGVTGPDGEDYSPWADRKAAQPKSLSPPQSQSKLSDSYSNTLPVRKSVTPKNSYATTENKTLPRSSAMAAGLERNGRMRVKAIFSHAAGDNSTLLSFKEGDLITLLVPEARDGWHYGESEKTKMRGWFPFSYTRVLDSDGSDRLHMSLQQGKSSSTGNLLDKDDLAIPPPDYGAASRAFPAQTASGFKQRPYSVAVPAFSQGLDDYGARSMSSGSGTLVSTV
B3: IRSp53-FLAG (wild type), natively phosphorylated, Q9UQB8-4 T340A (protein)
chain: MSLSRSEEMHRLTENVYKTIMEQFNPSLRNFIAMGKNYEKALAGVTYAAKGYFDALVKMGELASESQGSKELGDVLFQMAEVHRQIQNQLEEMLKSFHNELLTQLEQKVELDSRYLSAALKKYQTEQRSKGDALDKCQAELKKLRKKSQGSKNPQKYSDKELQYIDAISNKQGELENYVSDGYKTALTEERRRFCFLVEKQCAVAKNSAAYHSKGKELLAQKLPLWQQACADPSKIPERAVQLMQQVASNGATLPSALSASKSNLVISDPIPGAKPLPVPPELAPFVGRMSAQESTPIMNGVTGPDGEDYSPWADRKAAQPKSLSPPQSQSKLSDSYSNALPVRKSVTPKNSYATTENKTLPRSSSMAAGLERNGRMRVKAIFSHAAGDNSTLLSFKEGDLITLLVPEARDGWHYGESEKTKMRGWFPFSYTRVLDSDGSDRLHMSLQQGKSSSTGNLLDKDDLAIPPPDYGAASRAFPAQTASGFKQRPYSVAVPAFSQGLDDYGARSMSSGSGTLVSTV
B4: IRSp53-FLAG (wild type), natively phosphorylated, Q9UQB8-4 T360A (protein)
chain: MSLSRSEEMHRLTENVYKTIMEQFNPSLRNFIAMGKNYEKALAGVTYAAKGYFDALVKMGELASESQGSKELGDVLFQMAEVHRQIQNQLEEMLKSFHNELLTQLEQKVELDSRYLSAALKKYQTEQRSKGDALDKCQAELKKLRKKSQGSKNPQKYSDKELQYIDAISNKQGELENYVSDGYKTALTEERRRFCFLVEKQCAVAKNSAAYHSKGKELLAQKLPLWQQACADPSKIPERAVQLMQQVASNGATLPSALSASKSNLVISDPIPGAKPLPVPPELAPFVGRMSAQESTPIMNGVTGPDGEDYSPWADRKAAQPKSLSPPQSQSKLSDSYSNTLPVRKSVTPKNSYATTENKALPRSSSMAAGLERNGRMRVKAIFSHAAGDNSTLLSFKEGDLITLLVPEARDGWHYGESEKTKMRGWFPFSYTRVLDSDGSDRLHMSLQQGKSSSTGNLLDKDDLAIPPPDYGAASRAFPAQTASGFKQRPYSVAVPAFSQGLDDYGARSMSSGSGTLVSTV
B5: IRSp53-FLAG (wild type), natively phosphorylated, Q9UQB8-4 T340A; T360A (protein)
chain: MSLSRSEEMHRLTENVYKTIMEQFNPSLRNFIAMGKNYEKALAGVTYAAKGYFDALVKMGELASESQGSKELGDVLFQMAEVHRQIQNQLEEMLKSFHNELLTQLEQKVELDSRYLSAALKKYQTEQRSKGDALDKCQAELKKLRKKSQGSKNPQKYSDKELQYIDAISNKQGELENYVSDGYKTALTEERRRFCFLVEKQCAVAKNSAAYHSKGKELLAQKLPLWQQACADPSKIPERAVQLMQQVASNGATLPSALSASKSNLVISDPIPGAKPLPVPPELAPFVGRMSAQESTPIMNGVTGPDGEDYSPWADRKAAQPKSLSPPQSQSKLSDSYSNALPVRKSVTPKNSYATTENKALPRSSSMAAGLERNGRMRVKAIFSHAAGDNSTLLSFKEGDLITLLVPEARDGWHYGESEKTKMRGWFPFSYTRVLDSDGSDRLHMSLQQGKSSSTGNLLDKDDLAIPPPDYGAASRAFPAQTASGFKQRPYSVAVPAFSQGLDDYGARSMSRNPFAHVQLKPTVTNDRCDLSAQGPEGREHGDGSARTLAGR

For the assay, the target named is T1, endogenous 14-3-3 (all isoforms …). Briefly: coimmunoprecipitation (quantified western blot). The following applies: chain shown with the change; serum-starved cells; parent: est. 1.0; read off a plot. (In general: Immunoblotting shows a protein as a band on a membrane.)
As to B1, the ratio to parent was determined as 0.98.
With B2 the figure was 0.62; with B3, 0.1; with B4, 0.12.
With B5 the figure was 0.05.
